Laboratory results published in patent US20070184493.

Tests used:
[1] = tested on: substrate designed for detection of Caspase 3 (-DEVD′GIN- cleavage)
[2] = tested on: substrate designed for detection of Granzyme B (-VGPD′FGR- cleavage)

recombinant Caspase 3 was tested, and the “Fluorogenic activity of indicated substrates measured in solution after addition of recombinant enzyme” value [1] was “selective cleavage of substrates designed for detection of ... Caspase 3 (-DEVD′GIN- cleavage) protease activities”.
recombinant Granzyme B was tested, and the “Fluorogenic activity of indicated substrates measured in solution after addition of recombinant enzyme” value [2] was “selective cleavage of substrates designed for detection of Granzyme B (-VGPD′FGR- cleavage)”.
